From patent publication US20020065240A1

Molecular target: VEGF mitogenic receptors
Assay: cell-based or functional assay

purified human VEGF165 (R&D Systems, expressed in Sf21 cells) (from UniProt P15692 27-191) (ligand)
half-maximal activity, HUVEC mitogenesis ([3H]thymidine incorporation): 17 to 19 ng/mL
